# Experiment: soluble on expression in E. coli; label from the status in PepcDB or PDB records
row,Sequence,soluble on expression in E. coli
1,SRQWSQTLCEMSESEDDDIPQLSSHTLAALQEFYAEQKQSVNPRGDDKYNVGVIEENWQLSQFWYSQDTALRLAREAIDAAGEGGRIACVSAPSVYQKLRELCREDSSVYIFEYDRRFAIYGDEFIFYDYNHPLELPERIAAHSFDLVVADPPYLSEECLRKTSETIQFLTRGKILLCTGAIMEEQAAQLLGVKMCKFIPEHSRNLANEFRCYTNYDSGLDCEA,soluble
2,SSEAKKGHVLFFPYPLQGHINPMIQLAKRLSKKGITSTLIIASKDHREPYTSDDYSITVHTIHDGFFPHEHPHAKFVDLDRFHNSTSRSLTDFISSAKLSDNPPKALIYDPFMPFALDIAKDLDLYVVAYFTQPWLASLVYYHINEGTYDVPVDRHENPTLASFPGFPLLSQDDLPSFACEKGSYPLLHEFVVRQFSNLLQADCILCNTFDQLEPKVVKWMNDQWPVKNIGPVVPSKFLDNRLPEDKDYELENSKTEPDESVLKWLGNRPAKSVVYVAFGTLVALSEKQMKEIAMAISQTGYHFLWSVRESERSKLPSGFIEEAEEKDSGLVAKWVPQLEVLAHESIGCFVSHCGWNSTLEALCLGVPMVGVPQWTDQPTNAKFIEDVWKIGVRVRTDGEGLSSKEEIARCIVEVMEGERGKEIRKNVEKLKVLAREAISEGGSSDKKIDEFVALLT,soluble
3,SSFQGPLDATVVVNLQSPTLEEKNEFPEDLRTELMQTLGSYGTIVLVRINQGQMLVTFADSHSALSVLDVDGMKVKGRAVKI,soluble
4,SSHGIGDALGSDWPGREPRATDNRGQYLKGESWVSGRPGHPKLREVGFLRGEPPSAGPKGLGTWSELSHRYFELGQLPYAYPYYKVLPEGELRCVSLDRFNPGLSEETVEDEKTLKFFRWSADSRGVTGSAIFQISKSLMP,soluble
5,SSLCEDMLLCNYRKCRIKLSGYAWVTACSHIFCDQHGSGEFSRSPAICPACNSTLSGKLDIVRTELSPSEEYKAMVLAGLRPEIVLDISSRALAFWTYQVHQERLYQEYNFSKAEGHLKQMEKIYTQQIQSKDVELTSMKGEVTSMKKVLEEYKKKFSDISEKLMERNRQYQKLQGLYDSLRLRNITIANHEGTLEPSMIAQSGVLGFPLGNNSKFPLDNTPVRNRGDGDGDFQFRPFFAGSPTAPEPSNSFFSFVSPSRELEQQQVSSRAFKVKRI,not soluble
6,SSLENVVYNLVNAGHFDGRAGELPCAVIGEKVIAKIQNEDVVVFKNNTPFPTNVAVELFAKRSIRPHPELKLFRNLNIDVCWSHVLWDYAKDSVFCSSTYKVCKYTDLQCIESLNVLFDGRDNGALEAFKKCRNGVYINTTKIKSLSMIKGPQRADLNGVVVEKVGDSDVEFWFAVRKDGDDVIFSRTGSLEPSHYRSPQGNPGGNRVGDLSGNEALARGTIFTQSRLLSSFTPRSEMEKDFMDLDDDVFIAKYSLQDYAFEHVVYGSFNQKIIGGLHLLIGLARRQQKSNLVIQEFVTYDSSIHSYLITDENSGSSKSVCTVIDLLLDDFVDIVKSLNLKCVSKVVNVNVDFKDFQFMLWCNEEKVMTF,soluble
7,SSNEHGPVKRSSQSTLERSEQQIRAASSLEELLRITHSEDWKLWRCRLRLKSFTSMDSRSASHRSTRFAATFYDIETLKVIDEEWQRTQCSPRETCVEVASELGKSTNTFFKPPCVNVFRCGGCCNEESLICMNTSTSYISKQLFEISVPLTSVPELVPVKVANHTGCKCLPTAPRHPYSIIRRSIQIPEEDRCSHSKKLCPIDMLWDSNKCKCVLQEENPLAGTEDHSHLQEPALCGPHMMFDEDRCECVCKTPCPKDLIQHPKNCSCFECKESLETCCQKHKLFHPDTCSCEDRCPFHTRPCASGKTACAKHCRFPKEKRAAQGPHSRKNP,soluble
8,SSSISELYDVTWEEMRDKLRKWREENYRNSEQIVDVGEELINEHASKLGDDIWIIYEQVMIAALDCSRDDLAWSCLQELKRQFPDSHRVKRLAGMRLEALERYDDANKLYDSILQDDPTNTAARKRKICILRAQGKSSEAIRELNEYLEQFVGDQEAWHELSELYINEHDYAKAAFCLEELMMTNPHNHLYCEQYAEVKYTQGGLENLELARKYFAQALKLNNRNMRALFGLYMSASHIAASPKVSAKVKKDNVKYAAWAAAQISRAYQMAGRGKKENKCSVKAVEEMLESLQITMS,soluble
9,STDDKDVLRDVWFGRIPTCFTLYQDEITEREAEPYYLLLPRVSYLTLVTDKVKKHFQKVMRQEDVSEIWFEYEGTPLKWHYPIGLLFDLLASSSALPWNITVHFKSFPEKDLLHCPCKDAVEAHFMSCVKEADALKHKSQVINEMQRKDHKQLWMGLQNDLTSFGPSTGNSWNTLQKKMDFVISLLEYIRPQLNGLSFRSCSVLWPQMDSCIPLEIS,soluble
10,STDVHRRFLQLLMTHGVLEEWDVKRLQTHCYKVHDRSATVDKLEDFINNINSVLESLYIEIKRGVTEDDGRPIYALVNLATTSISKMATDFAENELDLFRKALELIIDSETGFASSTNILNLVDQLKGKKMRKKEAEQVLQKFVQNKWLIEKEGEFTLHGRAILEMEQYIRETYPDAVKICNICHSLLIQGQSCETCGIRMHLPCVAKYFQSNAEPRCPHCNDYWPHEIPKVFDPEKERESGVLKSNKKSLRSRQH,soluble
11,STMSGYLYRSKGSKKPWKHLWFVIKNKVLYTYAASEDVAALESQPLLGFTVTLVKDENSESKVFQLLHKGMVFYVFKADDAHSTQRWIDAFQEGTV,soluble
12,STSTNNELTVSMMGTSTKEEVVSKVDEEDDDSSSDSDMDYGSDSEWAGYNVLAETEPEWDVDSFDGHEFKINPRVRQMYRSQELYDKYYNNRLKAFENKGFLSDHLNGIYDVYLDEKMDGYNSTRDFMAELANVCVKKHNETKGNTLELVNVVRATERGAATWRLYITFMAREFPDGPLVEYQAKVIKFLGVKDPFPVLCRAAPKPGI,soluble
13,STTEEESLSAAEEGYNVQRDYWRQAEESDGFDIENIKLPPGMHGRVMGLITYNCQLCYRYPFPVLVKLYAKFGLHRYNLIKGTSFELAALMKFNMLQNYMSSFYMTLLAHDPDPAASSSQKTFQVRVDEQQFGTLGINCSIARPKHEGDLLEVSTKTPFIPHFHGGALGDGIFKGELPDCLSDDALNALMEAVSKDELPEHVLDDALYARAGGIFQGELPDWPSDDALNDGKRFYMLKESEWQATDWISMYLELVITTTDRSITEPEVLSKLEIVKVAIETATKDEEPSNERLKAYRAHFYITFKGLAEPRAPRQVFEIGEHVERQAIVRRVMGHRGDLTLKGKLCGGQYIKRRSLALKSGEESPNCKKQTRVG,soluble
14,STYEYKRELREGARGKWINLRQHLNSGTRLEKELIKVDRQIDKKAAEIKEIEDLLFKIEQYKAENNIR,not soluble
15,SVRRKSCIVKEMEKMKNKREEKRAQNSELRIKRAQEYDSSFPNWEFARMIKEFRVTMECSPLTVTDPIEEHRICVCVRKRPLNKQELAKKEIDVISVPSKCLLLVHEPKLKVDLTKYLENQAFCFDFAFDETASNEVVYRFTARPLVQTIFEGGKATCFAYGQTGSGKTHTMGGDLSGKSQNASKGIYAMASRDVFLLKNQPRYRNLNLEVYVTFFEIYNGKVFDLLNKKAKLRVLEDSRQQVQVVGLQEYLVTCADDVIKMINMGSACRTSGQTFANSNSSRSHACFQILLRTKGRLHGKFSLVDLAGNERGADTSSADRQTRMEGAEINKSLLALKECIRALGQNKAHTPFRESKLTQVLRDSFIGENSRTCMIAMISPGISSCEYTLNTLRYADRVKELSHHHHHHH,soluble
16,SWMEEVIKLCGRELVRAQIAICGMSTWS,soluble
17,SWSGLLPPGLNESDAESNSEDEATLENSGLNLQEDKEDESIRKTEIIDFSTDEPKTETESNVNAYEECPSGIPIDMWNKFQELHKKHSEQKSTTSRFRGKRRKRSRKDKLKNEKELHSEPSSNETQWKELTQYFGVNDRFDPPVKRKKVEKSGLEKRIDQAVEEWNIEKAEELSNQLATRELGVKIAKAVACHNFVKAKKEVENSQAARKKKKLAWGFEAKKRWETKSNMGYM,soluble
18,SYHLDTTAPPPTNLSTLPNNTLFHLWRPRAHILPAEGQIGDPCAHYTDPSTGLFHVGFLHDGDGIAGATTANLATYTDTSDNGSFLIQPGGKNDPVAVFDGAVIPVGVNNTPTLLYTSVSFLPIHWSIPYTRGSETQSLAVARDGGRRFDKLDQGPVIADHPFAVDVTAFRAPFVFRSARLDVLLSLDEEVARNETAVQQAVDGWTEKNAPWYVAVSGGVHGVGPAQFLYRQNGGNASEFQYWEYLGEWWQEATNSSWGDEGTWAGRWGFNFETGNVLFLTEEGHDPQTGEVFVTLGTEGSGLPIVPQVSSIHDMLWAAGEVGVGSEQEGAKVEFSPSMAGFLDWGFSAYAAAGKVLPASSAVSKTSGVEVDRYVSFVWLTGDQYEQADGFPTAQQGWTGSLLLPRELKVQTVENVVDNELVREEGVSWVVGESDNQTATLRTLGITIARETKAALLANGSVTAEEDRTLQTAAVVPFAQSPSSKFFVLTAQLEFPASARSSPLQSGFEILASELERTAIYYQFSNESLVVDRSQTSAAAPTNPGLDSFTESGKLRLFDVIENGQEQVETLDLTVVVDNAVVEVYANGRFALSTWARSWYDNSTQIRFFHNGEGEVQFRNVSVSEGLYNAWPER,soluble
19,SYLGSEFDNVELKDLANVLSFGEAKLGDNGQKFNFLFHTASSNVWVPSIKCTSESCESKNHYDSSKSKTYEKDDTPVKLTSKAGTISGIFSKDLVTIGKLSVPYKFIEMTEIVGFEPFYSESDVDGVFGLGWKDLSIGSIDPYIVELKTQNKIEQAVYSIYLPPENKNKGYLTIGGIEERFFDGPLNYEKLNHDLMWQVDLDVHFGNVSSKKANVILDSATSVITVPTEFFNQFVESASVFKVPFLSLYVTTCGNTKLPTLEYRSPNKVYTLEPKQYLEPLENIFSALCMLNIVPIDLEKNTFVLGDPFMRKYFTVYDYDNHTVGFALAKNL,soluble
20,SYPSLFAPLDLGFTTLKNRVLMGSMHTGLEEYPDGAERLAAFYAERARHGVALIVSGGIAPDLTGVGMEGGAMLNDASQIPHHRTITEAVHQEGGKIALQILHTGRYSYQPHLVAPSALQAPINRFVPHELSHEEILQLIDNFARCAQLAREAGYDGVEVMGSEGYLINEFLTLRTNQRSDQWGGDYRNRMRFAVEVVRAVRERVGNDFIIIYRLSMLDLVEDGGTFAETVELAQAIEAAGATIINTGIGWHEARIPTIATPVPRGAFSWVTRKLKGHVSLPLVTTNRINDPQVADDILSRGDADMVSMARPFLADAELLSKAQSGRADEINTCIGCNQACLDQIFVGKVTSCLVNPRACHETKMPILPAVQKKNLAVVGAGPAGLAFAINAAARGHQVTLFDAHSEIGGQFNIAKQIPGKEEFYETLRYYRRMIEVTGVTLKLNHTVTADQLQAFDETILASGIVPRTPPIDGIDHPKVLSYLDVLRDKAPVGNKVAIIGCGGIGFDTAMYLSQPGESTSQNIAGFCNEWGIDSSLQQAGGLSPQGMQIPRSPRQIVMLQRKASKPGQGLGKTTGWIHRTTLLSRGVKMIPGVSYQKIDDDGLHVVINGETQVLAVDNVVICAGQEPNRALAQPLIDSGKTVHLIGGCDVAMELDARRAIAQGTRLALEI,soluble
21,TAELKICRVNRNSGSCLGGDEIFLLCDKVQKEDIEVYFTGPGWEARGSFSQADVHRQVAIVFRTPPYADPSLQAPVRVSMQLRRPSDRELSEPMEFQYLPDTDDRHRIEEKRKRTYETFKSIMKKSPFNGPTEPRP,soluble
